Reference: patent publication US20080075726A1 (VACCINEX, published 2008)

Tests used:
recombinant human IL-6 [1] = biological target: T1, recombinant human IL-6 (human, UniProt P05231 30-212, limits assumed); assay: Biacore 2000, mAb captured on anti-human IgG CM5 chip, human IL-6 40-1.25 nM injected
T1 construct: also called rhIL6; human recombinant IL-6
Procedure: (§1) IC50 ELISA was performed as described above. Affinity analysis by Biacore was performed according to manufacturer protocols using HBS-EP buffer (Biacore AB).

recombinant human IL-6 [2] = biological target: T1, recombinant human IL-6; assay: competition ELISA, rhIL-6 in solution against captured IL-6 (Affinity (nM) by IC50 ELISA)
Procedure: (§2) Briefly, plates were coated with 2 μg/ml of mBE4 capture antibody in coating buffer, 100 μl per well. The plates were incubated overnight. Next, the plates were washed 3 times and tapped dry. The plates were then blocked with 200 μl per well of Assay Diluent or 10% FBS in PBS and incubated for 2 hours. […] The reaction was left at RT for 3-4 hours. […] Next, the plates were washed 3 times and tapped dry. […] The plates were incubated for 1-2 hours. The plates were washed 3 times and tapped dry. […] The plates were incubated at RT for 2 hours. (Therefore, any unbound mAb at this point will be measured by ELISA). Plates were then washed 5 times and tapped dry. 100 μl of detection Ab goat anti-human IgG F(ab)′2-HRP (Jackson lab) was added at 1:20,000 dilutions or 1:40,000 dilutions (depending on lot) and the plates were incubated for 1-2 hours. The plates were washed 7 times and tapped dry. Next, the Developer Substrate (equal parts of each reagent in the kit) was pre-mixed and allowed to warm to room temperature before use. Then 100 μl of Developer was added to each well. The plates were allowed to develop for 15 minutes un-sealed in a drawer in the dark. Finally, developing was stopped by adding 100 μl of 2N H₂SO₄ to each well and plates were read as Endpoint at 450 nm-[…].
as §1

recombinant human IL-6 [3] = biological target: T1, recombinant human IL-6; assay: competition ELISA, rhIL-6 in solution against captured IL-6
Procedure: as §2

B1: mAb 416 (antibody, V domains shown)
VH: QVTLKESGPTLVKPTQTLTLTCSFSGFSLSTSGVGVGWVRQPPGKALEWLAFIFWDDDKYYSPSLESRLTITKDTSKNQVVLTMTNMDPVDTATYYCARSYDDYLYYALDYWGQGTLVT
VL: DIQMTQSPSSLSAFVGDGVTMTCWASQSINDYLNWYHQRPGEAPELLVFAASNLQIGVPSRFRGSGSETYFTLTINSLQPEDSGTYFCQNGHSFPLTFGGGTKLEI
B1 was tested, and the Kd (recombinant human IL-6 [1]) was 0.3 nM, the IC50 (recombinant human IL-6 [2]) was 0.056 nM and the IC50 (recombinant human IL-6 [3]) was 0.6 nM.

B2: mAb 1259 (antibody, V domains shown)
VH: QVTLKESGPTLVKPTQTLTLTCSFSGFSLSTSGVGVGWVRQPPGKALEWLAFIWWDDDKYYSPSLESRLTITKDTSKNQVVLTMTNMDPVDTATYYCARSADDYLYYSFDTWGQGTLVT
VL: DIQMTQSPSSLSAFVGDGVTMTCWASQSINDYLNWYHQRPGEAPELLVFAASNLQIGVPSRFRGSGSETYFTLTINSLQPEDSGTYFCQNGHSFPLTFGGGTKLEI
In the case of B2, the Kd (recombinant human IL-6 [1]) is reported as 0.093 nM, the IC50 (recombinant human IL-6 [2]) is reported as 0.028 nM and the IC50 (recombinant human IL-6 [3]) is reported as 0.028 nM.

B3: mAb 1337 (antibody, V domains shown)
VH: QVTLKESGPTLVKPTQTLTLTCSFSGFSLSTSGVGVGWVRQPPGKALEWLAFIWWDDDKYYSPSLESRLTITKDTSKNQVVLTMTNMDPVDTATYYCARSADDYLYYSFDTWGQGTLVT
VL: DIQMTQSPSSLSAFVGDGVTMTCWASQSINDYLNWYHQRPGEAPELLVFAASNLQIGVPSRFRGSGSETYFTLTINSLQPEDSGTYFCQHGHSFPLTFGGGTKLEI
B3 was tested, and the IC50 (recombinant human IL-6 [2]) was 0.047 nM and the IC50 (recombinant human IL-6 [3]) was 0.047 nM.

B4: mAb 1338 (antibody, V domains shown)
VH: QVTLKESGPTLVKPTQTLTLTCSFSGFSLSTSGVGVGWVRQPPGKALEWLAFIWWDDDKYYSPSLESRLTITKDTSKNQVVLTMTNMDPVDTATYYCARSADDYLYYSFDTWGQGTLVT
VL: DIQMTQSPSSLSAFVGDGVTMTCWASQSINDYLNWYHQRPGEAPELLVFAASNLQIGVPSRFRGSGSETYFTLTINSLQPEDSGTYFCQSGHSFPLTFGGGTKLEI
Work on B4 yielded a Kd (recombinant human IL-6 [1]) of 0.072 nM, an IC50 (recombinant human IL-6 [2]) of 0.031 nM and an IC50 (recombinant human IL-6 [3]) of 0.031 nM.

B5: mAb 1340 (antibody, V domains shown)
VH: QVTLKESGPTLVKPTQTLTLTCSFSGFSLSTSGVGVGWVRQPPGKALEWLAFIWWDDDKYYSPSLESRLTITKDTSKNQVVLTMTNMDPVDTATYYCARSADDYLYYSFDTWGQGTLVT
VL: DIQMTQSPSSLSAFVGDGVTMTCWASQSINDYLNWYHQRPGEAPELLVFAASNLQIGVPSRFRGSGSETYFTLTINSLQPEDSGTYFCQNGWSFPLTFGGGTKLEI
Binder B5 has an IC50 (recombinant human IL-6 [2]) of 0.028 nM and an IC50 (recombinant human IL-6 [3]) of 0.028 nM.

B6: mAb 181 (antibody, V domains shown)
VH: QVTLKESGPALVKPTQTLTLTCTFSGFSLTTSGMCVSWIRQPPGKALEWLALIYWDDDKRYNPSLRSRLTITKDTSKNQVVLTMTNMDPVDTATYYCARSYDDYLYYALDYWGQGTLVT
VL: DIVMTQSPSSLSASVGDRVTITCRASQTISSYLNWYQQKPGKPPKLLIYAASSLESGVPSRFSGSGSGTEFTLTISSLQPEDLATYYCQQANSFPLTFGGGTKLE
In the case of B6, the IC50 (recombinant human IL-6 [3]) is reported as 12.9 nM.

B7: mAb 242 (antibody, V domains shown)
VH: QVTLKESGPTLVKPTQTLTLTCSFSGFSLSTSGVGVGWVRQPPGKALEWLAFIFWDDDKYYSPSLESRLTITKDTSKNQVVLTMTNMDPVDTATYYCARSYDDYLYYALDYWGQGTLVT
VL: DIVMTQSPSSLSASVGDRVTITCRASQTISSYLNWYQQKPGKPPKLLIYAASSLESGVPSRFSGSGSGTEFTLTISSLQPEDLATYYCQQANSFPLTFGGGTKLE
B7 showed an IC50 (recombinant human IL-6 [3]) of 2.2 nM.

B8: mAb 246 (antibody, V domains shown)
VH: QVTLKESGPTLVKPTQTLTLTCTFSGFSLSTSGVAVGWIRQPPGKALEWLALIFWDDDKHYSPSLKSRLTITKDTSKNQVVLTMTNMDPVDTATYYCARSYDDYLYYALDYWGQGTLVTVSS
VL: EIVLTQSPGTLSLSPGERATLSCRASQTIDSSYLAWYQQKPGQAPRLLVYGASSRATGIPDRFSDSGSGTDFTLTISRLEPEDFAVYYCQQYAKSPITFGQGTKLE
With B8 the IC50 (recombinant human IL-6 [3]) was 5.5 nM.

B9: mAb 247 (antibody, V domains shown)
VH: QVTLKESGPTLVKPTQTLTLTCTFSGFSLSTSGVAVGWIRQPPGKALEWLALIFWDDDKHYSPSLKSRLTITKDTSKNQVVLTMTNMDPVDTATYYCARSYDDYLYYALDYWGQGTLVTVSS
VL: DVVMTQSPSSVSASVGDRVTITCRASQDIDNFLAWYQQKPGKAPNLLIYKVSSLRSGVPSRFSGSRSGTDFTLTITSLQPEDFATYFCQQTRRFPLTFGPGTKLE
With B9 the IC50 (recombinant human IL-6 [3]) was 4 nM.

B10: mAb 248 (antibody, V domains shown)
VH: QVTLKESGPTLVKPTQTLTLTCTFSGFSLSTSGVAVGWIRQPPGKALEWLALIFWDDDKHYSPSLKSRLTITKDTSKNQVVLTMTNMDPVDTATYYCARSYDDYLYYALDYWGQGTLVTVSS
VL: DIVMTQSPSSLSASVGDRVTITCRASQTISSYLNWYQQKPGKPPKLLIYAASSLESGVPSRFSGSGSGTEFTLTISSLQPEDLATYYCQQANSFPLTFGGGTKLE
Binder B10 has an IC50 (recombinant human IL-6 [3]) of 2 nM.

B11: mAb 265 (antibody, V domains shown)
VH: QVTLKESGPALVKPTQTLTLTCTFSGFSLTTSGMCVSWIRQPPGKALEWLALIYWDDDKRYNPSLRSRLTITKDTSKNQVVLTMTNMDPVDTATYYCARSYDDYLYYALDYWGQGTLVT
VL: DIQMTQSPSTLSASVGDRVTITCRASQSMSDYLNWYQQKPGKAPKLLIYSASGLQSGVPSRFSGSGSGTDFTLTIINLQPEDVAAYYCQQSFSFPLTFGPGTKLEIK
B11 was tested, and the IC50 (recombinant human IL-6 [3]) was 6.2 nM.

B12: mAb 297 (antibody, V domains shown)
VH: QVTLKESGPTLVKPTQTLTLTCTFSGFSLSTSGVAVGWIRQPPGKALEWLALIFWDDDKHYSPSLKSRLTITKDTSKNQVVLTMTNMDPVDTATYYCARSYDDYLYYALDYWGQGTLVTVSS
VL: DIQMTQSPSSLSASVGDSVTITCRASQTISDFLNWYQQKPGKAPKLLIHASSNLQSGVPSRFSGSGSGTDFTLTISDLQPEDFATYSCQQTYSTLGTFGQGTRLE
B12 showed an IC50 (recombinant human IL-6 [3]) of 11.5 nM.

B13: mAb 182 (antibody, V domains shown)
VH: QVTLKESGPALVKPTQTLTLTCTFSGFSLTTSGMCVSWIRQPPGKALEWLALIYWDDDKRYNPSLRSRLTITKDTSKNQVVLTMTNMDPVDTATYYCARSYDDYLYYALDYWGQGTLVT
VL: DIQMTQSPSSLSASVGDRVTITCRASQSISTYLNWYQQKLGKAPKLLIYAASSLQSGVPSRFSGSGSGTDFTLTISSLQPEDLATYYCQQSYRPLTFGGGTKLEIK
B13 was tested, and the IC50 (recombinant human IL-6 [3]) was 6.3 nM.

B14: mAb 183 (antibody, V domains shown)
VH: QVTLKESGPALVKPTQTLTLTCTFSGFSLTTSGMCVSWIRQPPGKALEWLALIYWDDDKRYNPSLRSRLTITKDTSKNQVVLTMTNMDPVDTATYYCARSYDDYLYYALDYWGQGTLVT
VL: DIQMTQSPSSLSASVGDSVTITCRASQSISIYLNWYQQKPGKAPDLLIYATSTLQSGVPSRFSGRGSGTHFTLTIDSLQPEDFATYYCQQTYRNLFTFGQGTKLE
B14 gave an IC50 (recombinant human IL-6 [3]) of 1.75 nM.

B15: mAb 184 (antibody, V domains shown)
VH: QVTLKESGPALVKPTQTLTLTCTFSGFSLTTSGMCVSWIRQPPGKALEWLALIYWDDDKRYNPSLRSRLTITKDTSKNQVVLTMTNMDPVDTATYYCARSYDDYLYYALDYWGQGTLVT
VL: DIQMTQSPSSLSASVGDSVTVTCRASQKMRTYLHWYQQKPGKAPKLLIYDVSFLQNGVPSRFSGRASGTEFTLTISDLQPEDFATYYCQQSYDTPLTFGQGTKLEIK
In the case of B15, the IC50 (recombinant human IL-6 [3]) is reported as 2.4 nM.
